Measured values taken from article PMC4677347.

Legend:
[1] = target: human proteasome α7 subunit (human) (UniProt P25788); assay: AUC; sedimentation velocity, α7 alone, 150 mM potassium phosphate pH 7.4, 25,000 rpm, c(s) analysis in SEDFIT
[2] = target: human proteasome α7 subunit (human) (UniProt P25788); assay: native MS; α7 (2 μM tetradecamer) mixed with α6 (0.5, 1, 2, 4 and 8 μM monomer) at pH 7.5, incubated at 20 °C for 1 h, nanoflow ESI under non-denaturing conditions
[3] = target: human proteasome α7 subunit (human) (UniProt P25788); assay: native MS; α7 alone, 28 μM monomer, 10 mM ammonium acetate pH 6.8, nanoflow ESI under non-denaturing conditions
[4] = target: human proteasome α7 subunit (human) (UniProt P25788); assay: AUC; sedimentation velocity, mixture of α7 and α6 at 1:4 molar ratio (α7 tetradecamer to α6 monomer), 150 mM potassium phosphate pH 7.4, 25,000 rpm
[5] = target: human proteasome α6 subunit, short isoform (human) (UniProt P25786); assay: native MS; α6 alone at 5, 10 and 20 μM monomer, 150 mM ammonium acetate pH 7.5, nanoflow ESI under non-denaturing conditions
[6] = target: human proteasome α6 subunit, short isoform (human) (UniProt P25786); assay: AUC; sedimentation velocity, α6 alone, 150 mM potassium phosphate pH 7.4, 55,000 rpm, c(s) analysis in SEDFIT

## human proteasome α7 subunit (from UniProt P25788 1-255) (natural protein)
[1]
  stoichiometry N: 14
[2]
  stoichiometry N: 7
[3]
  stoichiometry N: 14
[4]
  stoichiometry N: 7

## human proteasome α6 subunit, short isoform (from UniProt P25786 1-263) (natural protein)
[5]
  stoichiometry N: 2
[2]
  stoichiometry N: 7 α7 per α6
[6]
  stoichiometry N: 2
[4]
  stoichiometry N: 7 α7 per α6
